This experiment deals with SNARE core complex (synaptobrevin-II 1–96, syntaxin-1A 180–262, SNAP-25A 1–83, SNAP-25A 130–206) (rat, UniProt P63045;P32851;P60881-2). The experiment in a line: native gel or EMSA. (In general: In EMSA bound probe runs differently from free probe, usually more slowly.)

B1: synaptotagmin III C2A-C2B, residues 295–569 (domain or fragment)
chain: APCGRISFALRYLYGSDHLVVRILQALDLPAKDSNGFSDPYVKIYLLPDRKKKFQTKVHRKTLNPIFNETFQFSVPLAELAQRKLHFSVYDFDRFSRHDLIGQVVLDNLLELAEQPPDRPLWRDILEGGSEKADLGELNFSLCYLPTAGRLTVTIIKASNLKAMDLTGFSDPYVKASLISEGRRLKKRKTSIKKNTLNPTYNEALVFDVAPESVENVGLSIAVVDYDCIGHNEVIGVCRVGPEAADPHGREHWAEMLANPRKPVEHWHQLVEEKT
For B1, the binding result is given as “binds”.

(Values after article PMC2151181 (The Journal of Cell Biology, 1999).)
